System: 293T-rtTAadv-CymR cells
Assay: Luciferase assay, transient transfection, DOX and Cumate vs no inducer (Example 3), rtTAadv cells
Assay type: cell-based
Protocol: 293T cells were seeded at 1.5E+06 cells per 60 mm culture dish, and cultured in DMEM (Sigam, D6429) complete medium supplemented with 10% FBS (ExCell, 11H116) at 37° C. and 5% CO 2. After 24 hours of culture, transfection was carried out according to the PEI method. During transfection, 500 μL of transfection reagent which contained 5.5 ug of total plasmid was added to each 60 mm culture dish, and the mass ratio of total plasmid to PEI MAX (Polysciences, 24765-1) was 1:4. The transfection was carried out according to the PEI method, wherein the amount of total plasmid was 5.5 μg. The transfection was performed with plasmids 19BF074:18BF019 at a molar ratio of 10:1 to obtain 293T-rtTAadv-CymR cells; and the transfection was performed with plasmids 19BF075:18BF019 at a molar ratio of 10:1 to obtain 293T-rtTA3G-CymR cells. The plasmid and PEI MAX were mixed uniformly, and then put into a culture dish after standing for 15 minutes. 3 hours after transfection, the medium was changed to a complete DMEM medium, and the transfection operation was completed. After 24 hours of transfection, the cells were digested with trypsin and all seeded in a 100 mm culture dish (Corning, 430167), and 200 μg/ml of hygromycin (Sangon Biotech A600230-0001) drug screening was performed for at least three passages. After the growth of cells under the pressure of drug screening was consistent with that of the original 293T cells, the following experiments were performed.
In Tet-On inducible expression system, the induced transcription activity and the leaky transcription activity were comprehensively affected by the TetO operator linking sequence of the TRE response element and the minimal promoter sequence, as well as different mutants of the transactivator rtTA. In addition, the transport and stability of messenger ribonucleic acid may be enhanced by linking a spliceable intron sequence downstream of the 3′ end of the response element and upstream of the 5′ end of the regulated nucleic acid fragment of interest, but the induced transcription activity and leaky transcription activity of response element of the inducible expression system may also be affected. Based on this, the optimal design scheme of complex response element was determined in this Example based on the induced expression level and the ratio of induced/leaky expression level of Luciferase gene under the combination of the following conditions: (1) Tet-On and Cumate complex response elements TREadvCuO and TRE3GCuO designed based on the TREadv and TRE3G response element sequences; (2) whether an intron was linked; (3) being regulated by the transactivator rtTAadv or rtTA3G. A total of 8 design schemes were compared in this Example: TREadv (18BF232), TREadvCuO (18BF233), TRE3G (18BF234), TRE3GCuO (18BF235), TREadv-BGI (18BF240, wherein the response element was TREadv, and a human β-globulin intron was linked between the 3′ end of the response element and the 5′ end of the Luciferase gene), TREadvCuO-BGI (18BF241, wherein the response element was TREadvCuO, and a human β-globulin intron was linked between the 3′ end of the response element and the 5′ end of the Luciferase gene), TRE3G-BGI (18BF236, wherein the response element was TRE3G, and a human β-globulin intron was linked between the 3′ end of the response element and the 5′ end of the Luciferase gene) and TRE3GCuO-BGI (18BF237, wherein the response element was TRE3GCuO, and a human β-globulin intron was linked between the 3′ end of the response element and the 5′ end of the Luciferase gene). The promoter CMV-BGI (18BF229, wherein the promoter was CMV, and a human β-globulin intron was linked between the 3′ end of the CMV promoter and the 5′ end of the Luciferase gene) was used as a positive control. […]

B1: TRE3GCuO: Tet-On (7xTetO of TRE3G) and Cumate complex response element, CuO 50 bp behind the TATA box (SEQ ID NO: 23) (nucleic acid)
DNA: TCCCTATCAGTGATAGAGAACGTATGAAGAGTTTACTCCCTATCAGTGATAGAGAACGTATGCAGACTTTACTCCCTATCAGTGATAGAGAACGTATAAGGAGTTTACTCCCTATCAGTGATAGAGAACGTATGACCAGTTTACTCCCTATCAGTGATAGAGAACGTATCTACAGTTTACTCCCTATCAGTGATAGAGAACGTATATCCAGTTTACTCCCTATCAGTGATAGAGAACGTATTAGGCGTGTACGGTGGGCGCCTATAAAAGCAGAGCTCGTTTAGTGAACCGTCAGATCGCCTGGAGCAATTCCACATACAAACAGACCAGATTGTCTGTTTGTT
modifications: TRE3GCuO50 response element sequence
Q: With B1 as the molecule, how does the “increase of induced/leaky expression ratio of TRE3GCuO over TREadvCuO” value read?
A: 16.4%

Q: And the “induced expression level as % of the induced expression level of TRE3G” value?
A: 50.4%

Q: And the induced expression level (1 ug/ml DOX and 200 ug/ml Cumate)?
A: 3.4E+06 RLU

Q: And the “induced expression level as % of that of the corresponding TRE3G or TREadv single regulatory response element” value (DOX and Cumate)?
A: 50.4%

Q: And the induced/leaky expression ratio (DOX and Cumate vs no inducer)?
A: 1565 times

— patent US11680267B2, “Co-regulatory sequences based on tetracycline and Cumate” (Shenzhen Eureka Biotechnology Co., Ltd., priority 2020, dated 2023)
